Source: a protein production outcome set (Wang et al. 2014)

Assay: label from the status in PepcDB records
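Also: failed if final PepcDB status was selected cloned or expressed and not failed if soluble or beyond.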

Row | Sequence | protein production
1 | MTKTFKTLDDFLGTHFIYTYDNGWEYEWYAKNDHTVDYRIHGGMVAGRWVTDQKADIVMLTEGIYKISWTEPTGTDVALDFMPNEKKLHGTIFFPKWVEEHPEITVTYQNEHIDLMEQSREKYATYPKLVVPEFANITYMGDAGQNNEDVISEAPYKEMPNDIRNGKYFDQNYHRLNK | not failed
2 | MRIGVIMGGVSSEKQVSIMTGNEMIANLDKNKYEIVPITLNEKMDLIEKAKDIDFALLALHGKYGEDGTVQGTLESLGIPYSGSNMLSSGICMDKNISKKILRYEGIETPDWIELTKMEDLNFDELDKLGFPLVVKPNSGGSSVGVKIVYDKDELISMLETVFEWDSEVVIEKYIKGEEITCSIFDGKQLPIISIRHAAEFFDYNAKYDDASTIEEVIELPAELKERVNKASLACYKALKCSVYARVDMMVKDGIPYVMEVNTLPGMTQASLLPKSADAAGIHYSKLLDMIIETSLRVRKEEGF | not failed
3 | DGSFRRWSLRQVPEVQGAFMAMDVNSGRVLAMQGGFSYQYSVFNRATQATRQPGSSFKPFVYAAALDSGFTPATIVIDAPIEVQTAQGLWTPKNASGKYYGPTPLRTGVEQSRNLMTVRIAQEIGMDTVASYAERFGVYDRMGQFLANALGAEETTLFKMVAAYAMFANGGERVQPTLVDRVQDRFGRTIYRHDQRICDDCAQPLLPEGRAPHITSKRERVMDAITAYQLTSMMEGVIKRGTGRGINLPVPVAGKTGTTNDAKDVWFIGYTSNIVAGCYIGYDQPRSMGSASGGGFCGPVFQSFMTKAVKKYGGSEF | failed
4 | MNLQHITILTLFIEGLLSFFSPCVLPILPVYIGILAGQGEEKQSGEIIWDRRKVFTNTFLFISGIAATFFILAFASSLISQFLQSHIQFLQNLGGILILIMGLVQVGLIKSHFFNREYSAKNKVYQAGQKVTPLIAFLMGFTFSFSWTPCIGPILASVFLYASTHQGIYSVLLILIYCLGFVIPFALIALFSQRVMSVFKKQKRFLKYTKLFSGILLILIGISILTGSFAKIAHLFN | failed
5 | MIDVIQSLGIDLHFRQEIEQTLHMIYKEGLQFNGDLHEIALRFRLLRQEGHYVQEIIFKNILDKKGGFKDVVKNDVKGLTELFEASELRVEGEETLDGAREFTYSRLNELCSGRESHQKQEIMKSLAQPRHKTVRGLTSKRFTSMIKIAGQEDPEWLQSLLRVAEIDSIRLKSLTQGEMSQTFKWWTELGLEKDVEKARSQPLKWHTWSMKILQDPTLTEQRLDLTKPISLVYVIDDIFDVYGELEELTIFTRVVERWDHKGLKTLPKYMRVCFEALDMITTEISMKIYKSHGWNPTYALRQSWASLCKAFLVEAKWFNSGYLPTTEEYMKNGVVSSGVHLVMLHAYILLGEELTKEKVELIESNPGIVSSAATILRLWDDLGSAKDENQDGTDGSYVECYLNEYKGSTVDEARTHVAQKISRAWKRLNRECLNPCPFSRSFSKACLNIARTVPLMYSYDDDQRLPDEYLKSLM | failed
6 | MQLSWKDIPTVAPANDLLDIVLNRTQRKTPTVIRPGFKITRIRAFYMRKVKYTGEGFVEKFEDILKGFPNINDVHPFHRDLMDTLYEKNHYKISLAAISRAKSLVEQVARDYVRLLKFGQSLFQCKQLKRAALGRMATIVKKLRDPLAYLEQVRQHIGRLPSIDPNTRTLLICGYPNVGKSSFLRCITKSDVDVQPYAFTTKSLYVGHFDYKYLRFQAIDTPGILDRPTEEMNNIEMQSIYAIAHLRSCVLYFMDLSEQCGFTIEAQVKLFHSIKPLFANKSVMVVINKTDIIRPEDLDEERAQLLESVKEVPGVEIMTSSCQLEENVMEVRNKACEKLLASRIENKLKSQSRINNVLNKIHVAQPQARDDVKRTPFIPESVKNLKKYDPEDPNRRKLARDIEAENGGAGVFNVNLKDKYLLEDDEWKNDIMPEILDGKNVYDFLDPEIAAKLQALEEEEEKLENEGFYNSDDEEEIYDGFEASEVDDIKEKAAWIRNRQKTMIAEARNRKSLKNKAIMPRSKLTKSFGKMEEHMSTLGHDMSALQDKQNRAARKNRYVERGSDVVFGDQDALTASTENGVKLRQTDRLLDGVADGSMRSKADRMAKMERRERNRHAKQGESDRHNAVSLSKHLFSGKRGVGKTDFR | failed
7 | MSRGGFCQTYFAVDECQSPPVPYVVQKLHDNEQLLDSFQQKAQYIEQLSQNSQLPTLLAYFRDQDNYYFVQEFIAGASLAQVVQEEGAFHETQVWQLLTNLLPILKLMSDRQLIHGDIKPENIIRQLTPDSTNLVLVDFGHVQIVSRTDQITDVQGVGSPEYAAPEQITGQAVFASDLYSLGVTCIHLLTLVSPFDLFDIANDCWVWQQYLTTKISDRLTKILNKLIQKSVHQRFQSADEVMQVMGIEGKILHYPPPPSPWQCLHTLTGYSTNSLAISPDGNKLASGGDDKIIRLWELNTQKLLACFSGHSQAVTSVSFSPQGEILATASDDKTIKLWHLPTSSEVFTLNGHTNPVKSVSFSPNGQILASGSWDKQVKLWDVTTGKEIYALKAHQLQVSAVAFSPQGEILASASFDRTIRLWQITQNHPRYTLIKTLSGHTRAVLAIAFSPDGKILATGSDDNTIKLWDINTGQLIATLLGHSWSVVAVTFTADNKTLISASWDKTIKLWKVSTTEEIVTLASHLDSVCAVAVNPVTQVIASSSRDKTIKLWQLVIQQN | failed
8 | MGHHHHHHSHAHTTTSMEIFGSPEQVWQLIGGFNSLPDWLPYIPSSKLTEGGRVRHLANPDGDTIIERLEVFNDKERYYTYSIMNAPFPVTNYLSTIQVKEGTESNTSLVEWSGTFTPVEVSDEEAINLFHGIYSDGLKALQQAF | not failed
9 | MTNGKNPKEYSRQYVDEIAERADVVGYAPAIEYSFDRYTNNPVHEKIATIHDGEKLGDDAHVEVVVVDFFKKSDKGDKCYATKRTYAVIPDSDGDGTDALVYSGSLKSVSDIEEGYVTETDFTSKTVTYAKGDYAATELEHHHHHH | failed
10 | NNNSKINLFCVPSAGSSASIFSAWDKTSAENLKVIALEYPGHGRKIQQSLSHDPDFLAHQFSLEILAYGNTPYVLFGHSVGASLIWKIEEKLKLLHADHNLILKIVSARPSPLFQNLIHNYSHLTDEQMIKELRLYNNFPDEILNNASALNFFLPIIKNDFILSDNMLKKPIFKSSVPLMSVYGEADPYIKNHNIMESWSTYTNKWLGAHQFSGDHFYFLDTTILQKMLHLIQEKIY | failed
11 | MAGENSDNEPSSPASPSSAGFNTDQLPISTSQNSENFSDEEEAAVDTQVIRDEPDEAEDEEEEEGEDLFNDTFMNDYRKMDENDQYESNGIDDSVDDERDLGQAMLDRRAADADLDARENRLANRKLPHLLHDNDSDDWNYRPSKRSRTTVPPRGNGGDPDGNPPSSPGVSQPDISMTDQTDDYQDEDDNDDEAEFEMYRIQGTLREWVMRDEVRRFIAKKFKDFLLTYVKPKNENGDIEYVPNKCSLEIDYKEFIHVHPNIAIWLADAPQPVLEVMEEVSEKVIFDLHPNYKNIHTKIYVRVTNLPVNDQIRNIRQIHLNTMIRIGGVVTRRSGVFPQLQQVKYDCNKCGAVLGPFFQNSYSEVKVGSCSECQSKGPFTVNVEQTIYRNYQKLTIQESPGTVPAGRLPRHKEVILLNDLIDCARPGEEIEVTGIYTNNFDLSLNTKNGFPVFATVVEANYVTKKQDLFSAYKLTQEDKTQIEELSKDPRIVERIIKSIAPSIYGHEDIKTALALAMFGGQEKNIKGKHRLRGDINVLLLGDPGTAKSQFLKYVEKTGQRAVYTTGKGASAVGLTAAVHKDPVTREWTLEGGALVLADRGICLIDEFDKMNDQDRVSIHEAMEQQSISISKAGIVTSLQARCSVIAAANPVGGRYDSSKSFAQNVELTDPILSRFDILCVVKDVVDPVTDEMLAEFVVNSHFKSQPKGGKMEDSDPEDGIQGSSGSTDPEVLPQNLLKKYLTYSKLYVFPKLGELDAKKLETVYANLRRESMNGQGVSIATRHLESMIRMSEAHARMHLRQYVTEEDVNMAIRVLLDSFISTQKFGVQRTLRESFKRYITYKKDFNSLLLVLLKELVKNALKFEEIISGSNSGLPTIEVKIEELQTKAKEYDIADLRPFFSSTDFSKAHFELDHGRGMIKCPKRLITW | failed
12 | MQKKTVGLLLASAGPFLWGSSGTVAQHLFDTTTISPLWLVAVRMLVSGGLLILYGFSRRLPVMVVFHDWRATVRLIVFSLFGMAGVQLTYFMAISTGNAAMAAILQFLSPVMIIIFITATTWQLPGKVDVISVVSAIAGTVLIVTEGHTDSLALPVIAIIWGLLAAVGATIYTLMPTKLLKVYGATPIVGWSMLIGGGLVLVGTGAWHHSPQLTWVAWGQVGFVVIFGTMLAYLFFLQSLEYILPTTASVLGAIEPLAATILSVLFLHVHFNWVGLIGAIMIVGVTILQFAATRANQFVSK | failed
13 | MSLVAARPLVLVVDDNAVNREALILYLKSRGIDAVGADGAEEARLYLHYQKRIGLMITDLRMQPESGLDLIRTIRASERAALSIIVVSGDTDVEEAVDVMHLGVVDFLLKPVDLGKLLELVNKELKIGEGHHHHHH | not failed
14 | MTHSQWQSLPRRGAYVAAINGTLGGGCAGLITASVTVVWLHAWRYWPAVLGVTAVIALLGAWLAVKRHRLTQWQLDQHGLALQRGHLWQSDTRVPISRVQHVDLRRGPIERATGLTTLVVHTAGSRLNAVALSGLDQDDAERLRDRLARQLDHDDDAL | failed
15 | MHSQFAPRLRQLRWYEIVLIATVAAALCIYLPIVVKRSAVQGFGDVQVFFRAAWAVWTGYPLYQVADHHGWTYHYPPTFALLMGPFAHPLDGFPKPDWALSLPLSVATWYVFSAAAMLAAVDLWARGLERALPPSLDQADWSAWWLLRLGPVAALLPFFGDGLGRGQPSAVVLLTMVAFLVLYLRGRIYLAACALALGFTIKLFPLALLIFPVLRRDLRTVLATFGFSAVFLFVVPMLCLGPSEVVKLYGAMWTEHLSGIFTGVPNPKIADEITFTSYDMLSIGAMLARIAAGGLPETDTLPRFATICQLMFDAVVIGALLWLGHGRFWRLRGPQPPLGPSLLIGGALLCAALPVMLSVSQPNYVAFAAPLVALVQFEVWRRRGRVCVVPALIAWSGLMWLGMIATEGGAWQPLRVVGLVTPALIALLLWGFASLRRAAAPP | failed
16 | MSDEGPGTGPGNGLGEKGDTSGPEGSGGSGPQRRGGDNHGRGRGRGRGRGGGRPGAPGGSGSGPRHRDGVRRPQKRPSCIGCKGTHGGTGAGAGAGGAGAGGGGRGRGGSGGRGRGGSGGRRGRGRERARGGSRERARGRGRGRGEKRPRSPSSQSSSSGSPPRRPPPGRRPFFHPVGEADYFEYHQEGGPDGEPDVPPGAIEQGPADDPGEGPSTGPRGQGDGGRRKKGGWFGKHRGQGGSNPKFENIAEGLRALLARSHVERTTDEGTWVAGVFVYGGSKTSLYNLRRGTALAIPQCRLTPLSRLPFGMAPGPGPQPGPLRESIVCYFMVFLQTHIFAEVLKDAIKDLVMTKPAPTCNIRVTVCSFDDGVDLPPWFPPMVEGAAAEGDDGDDGDEGGDGDEGEEGQELEHHHHHH | failed
17 | MSRQQARGALGRAWWLQLALALLPLILVEFFLGELQPLPHGLAMPLFIAALLSMFVNLPLFGAYKRGLIATQKALDTAEEAAAWTRLAQVRRKALFGASLPAWIGVPGVFAGLNGVALILLGVTSLVLFWLYRIPRQLG | failed
18 | MNVLRPTLLTLACLLASPGFADDLPSLGDASSAIVSPQQEYQLGRAWLALLRSQVSQLNDPQLKDYVETSVYKLVETSQVNDRRLEFILINSPQLNAFAAPGGIIGVNGGLFLNAQTEGEYASVLAHELAHLSQRHFARGVEAQQRMQVPMMAALLAGIVIAAAGAGDAGIATIAGTQAAAIQEQRRFSRQNEQEADRIGILNLEKAGYDPRSMPTMFERLMRQYRFDAKPPEFLLTHPVTESRIADTRNRAEQARQGGTEDSLRYQLIRARVQLTYEESPGLAAKRFRAQLDENPKNDIARYGLAIAQIKGSQWNEARENLKPLLAKSPNDVTYNLAQIELDMANSRLPDAQTRVERMLNLYPGNYPLNQIRVDLLLKQNRPADAEKALEGLLKSRPDDPDVWYLVAETRGLSGNIIGLHQARAEYFALVGDYRQAIQQLDFAKRRAGSNFPLSSRIDARQREMMDQEQMVKDMMRLEHHHHHH | not failed
